These are literature values, as cited in paper PMC3332193.

For orientation: Kd means the equilibrium constant for the complex coming apart.

Some results are limits rather than exact numbers.

The target of the data set is EGFR (Homo sapiens) (UniProt P00533).

As to EGF (from UniProt P01133), the Kd was under 12 nM.
